First the molecules themselves.
T1: TAX-IP2L PDZ-GST fusion protein (Homo sapiens (Human), UniProt Q8TF64 107-197)
T1 construct: Order of GST and PDZ part and limits not seen in the excerpts
T1 sequence: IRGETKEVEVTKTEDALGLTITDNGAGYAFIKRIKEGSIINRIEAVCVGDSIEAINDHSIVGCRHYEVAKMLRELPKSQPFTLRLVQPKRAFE

T2: GEF PDZ-GST fusion protein (Homo sapiens (Human), UniProt Q8TEU7 293-400)
T2 construct: The label GEF is not explained in the excerpts
T2 sequence: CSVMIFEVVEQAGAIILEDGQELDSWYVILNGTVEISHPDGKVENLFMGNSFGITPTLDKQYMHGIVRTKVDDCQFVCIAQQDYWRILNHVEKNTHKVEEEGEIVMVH

T3: ConEn PDZ-GST fusion protein (Homo sapiens (Human), UniProt Q969H4 193-287)
T3 construct: The label ConEn is not explained in the excerpts
T3 sequence: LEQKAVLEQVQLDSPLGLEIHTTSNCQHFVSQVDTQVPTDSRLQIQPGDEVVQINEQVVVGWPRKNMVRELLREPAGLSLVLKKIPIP

T4: GST-prIL16 fusion protein (PDZ domains 1-2) (Homo sapiens (Human), UniProt Q14005 1111-1324)
T4 construct: also called putative interleukin 16 precursor; not shown: glutathione S-transferase encoded by vector pGEX-3X (Pharmacia)
T4 sequence: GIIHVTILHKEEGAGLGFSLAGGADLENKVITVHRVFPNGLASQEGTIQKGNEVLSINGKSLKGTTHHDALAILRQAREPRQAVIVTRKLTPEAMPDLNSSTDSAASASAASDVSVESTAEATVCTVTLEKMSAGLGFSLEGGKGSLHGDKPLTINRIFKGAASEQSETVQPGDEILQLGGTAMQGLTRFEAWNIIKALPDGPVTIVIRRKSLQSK

T5: TAX-IP33 PDZ-GST fusion protein (Homo sapiens (Human), UniProt O14910 103-193)
T5 construct: Order of GST and PDZ part and limits not seen in the excerpts
T5 sequence: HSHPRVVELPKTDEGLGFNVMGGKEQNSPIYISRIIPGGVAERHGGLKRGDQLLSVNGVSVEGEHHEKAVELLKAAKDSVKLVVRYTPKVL

T6: GST-KIAA0303 PDZ domain fusion protein (Homo sapiens (Human), UniProt O15021 1138-1228)
T6 construct: also called K303; not shown: glutathione S-transferase encoded by vector pGEX-3X (Pharmacia)
T6 sequence: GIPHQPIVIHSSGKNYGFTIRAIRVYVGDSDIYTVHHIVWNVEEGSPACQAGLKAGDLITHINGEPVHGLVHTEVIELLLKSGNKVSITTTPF

T7: GST-TAX-IP2 PDZ domain fusion protein (human, UniProt O14908 129-216)
T7 construct: also called TAX-1P2; TAX2; not shown: glutathione S-transferase encoded by vector pGEX-3X (Pharmacia)
T7 chain: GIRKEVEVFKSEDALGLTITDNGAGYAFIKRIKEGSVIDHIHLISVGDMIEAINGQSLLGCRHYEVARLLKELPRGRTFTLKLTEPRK

T8: GST-AF6 PDZ domain fusion protein (Homo sapiens (Human), UniProt P55196 1001-1093)
T8 construct: also called af-6 protein; not shown: glutathione S-transferase encoded by vector pGEX-3X (Pharmacia)
T8 sequence: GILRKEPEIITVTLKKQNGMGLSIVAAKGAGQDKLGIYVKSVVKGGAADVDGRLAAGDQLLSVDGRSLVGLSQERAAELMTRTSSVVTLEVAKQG

T9: K858 PDZ-GST fusion protein (Homo sapiens (Human), UniProt Q8WWI1 1038-1131)
T9 construct: Order of GST and PDZ part and limits not seen in the excerpts
T9 sequence: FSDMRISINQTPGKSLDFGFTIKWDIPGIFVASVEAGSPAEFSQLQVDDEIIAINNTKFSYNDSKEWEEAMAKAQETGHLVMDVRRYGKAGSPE

T10: GST-DLG5 (p-dlg) PDZ domain fusion protein (Human, UniProt Q8TDM6 1343-1583)
T10 construct: also called Human discs large protein p-dlg; not shown: glutathione S-transferase encoded by vector pGEX-3X (Pharmacia)
T10 sequence: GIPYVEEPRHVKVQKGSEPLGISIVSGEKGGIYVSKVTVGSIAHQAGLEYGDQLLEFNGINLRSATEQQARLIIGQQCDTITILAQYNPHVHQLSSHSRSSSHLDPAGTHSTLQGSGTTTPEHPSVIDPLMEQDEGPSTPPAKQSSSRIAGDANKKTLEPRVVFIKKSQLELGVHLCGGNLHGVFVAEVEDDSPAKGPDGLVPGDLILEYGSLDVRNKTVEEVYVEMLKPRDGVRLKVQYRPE

T11: SP short PDZ-GST fusion protein (Homo sapiens (Human), UniProt O43464 350-435)
T11 construct: The label SP short is not explained in the excerpts
T11 sequence: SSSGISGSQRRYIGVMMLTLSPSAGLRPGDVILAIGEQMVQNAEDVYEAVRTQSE

T12: GST-TAX-IP43 PDZ domain fusion protein (human, UniProt Q13884 109-180)
T12 construct: also called TAX43; not shown: glutathione S-transferase encoded by vector pGEX-3X (Pharmacia)
T12 sequence: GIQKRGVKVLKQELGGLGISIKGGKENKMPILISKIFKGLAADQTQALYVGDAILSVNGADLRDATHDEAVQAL

T13: GST-DVL1 PDZ domain fusion protein (human, UniProt O14640 247-339)
T13 construct: also called human dishevelled segment polarity protein homolog; not shown: glutathione S-transferase encoded by vector pGEX-3X (Pharmacia)
T13 sequence: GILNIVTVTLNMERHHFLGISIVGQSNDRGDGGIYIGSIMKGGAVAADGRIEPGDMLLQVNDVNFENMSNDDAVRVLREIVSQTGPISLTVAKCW

B1: CDw137 (4-1BB ILA) C-terminal peptide AA21L (peptide)
peptide: Biotin-QEEDGCSCRFPEEEEGGCEL
modifications: cysteine pairing not given here
notes: Marked (S), sticky peptide with high background; also called CDw137 (4-1BB ILA) (S)
B2: V-gated Ca2+ channel C-terminal peptide AA46L (peptide)
peptide: Biotin-SSGGRARHSYHHPDQDHWC
notes: Marked (S), sticky peptide with high background; also called V-gated Ca2+ channel (S)
B3: Spectrin (beta) C-terminal peptide AA32L, biotinylated (peptide)
peptide: Biotin-SFPPCGHRENVPGQSLVSFV
notes: Marked (S), sticky; also called Spectrin beta (S); Spectrin β

Ends that are not written are not given here. * marks the point of attachment. Biotin = O=C1N[C@H]2[C@H](CS[C@H]2CCCCC(=O)*)N1

From patent US20050037969A1 (ARBOR VITA, published 2005) come the findings set out here.

One test has as its target T1, TAX-IP2L PDZ-GST fusion protein. The experiment in a line: A/G assays.
Regarding Biotin-TREDIYVNYPTFSRRPKTRV [DNAM-1 C-terminal peptide AA22L, biotinylated], the binding result was “no binding”.

The next test has as its target T2, GEF PDZ-GST fusion protein. Nature of the test: A/G assays.
Regarding Biotin-TREDIYVNYPTFSRRPKTRV [DNAM-1 C-terminal peptide AA22L, biotinylated], the binding result was “no binding”.

The next test has as its target T3, ConEn PDZ-GST fusion protein. Nature of the test: A/G assays.
Regarding Biotin-TREDIYVNYPTFSRRPKTRV [DNAM-1 C-terminal peptide AA22L, biotinylated], the binding result is listed as “no binding”.

A further test concerns the target T4, GST-prIL16 fusion protein (PDZ domains …). Nature of the test: A/G assays.
In the case of B1, the binding result is reported as “no binding”.

For B2, the binding result was “no binding”.

As for B3, the binding result was “no binding”.

For Biotin-TREDIYVNYPTFSRRPKTRV [DNAM-1 C-terminal peptide AA22L, biotinylated], the binding result is reported as “no binding”.

Another test concerns the target T5, TAX-IP33 PDZ-GST fusion protein. Nature of the test: A/G assays.
On to Biotin-TREDIYVNYPTFSRRPKTRV [DNAM-1 C-terminal peptide AA22L, biotinylated], for which the binding result is listed as “no binding”.

For the next test, the target named is T6, GST-KIAA0303 PDZ domain fusion protein. Nature of the test: A/G assays.
For the molecule B1, the binding result is recorded as “no binding”.

B2: the binding result was “no binding”.

Consider Biotin-TREDIYVNYPTFSRRPKTRV [DNAM-1 C-terminal peptide AA22L, biotinylated], for which the binding result is given as “no binding”.

For another test, the target named is T7, GST-TAX-IP2 PDZ domain fusion protein. Nature of the test: A/G assays.
In the case of B1, the binding result was “no binding”.

Turning to B2, the binding result is reported as “no binding”.

On to B3, for which the binding result is given as “no binding”.

With Biotin-TREDIYVNYPTFSRRPKTRV [DNAM-1 C-terminal peptide AA22L, biotinylated], the binding result is reported as “no binding”.

For another test, the target named is T8, GST-AF6 PDZ domain fusion protein. Nature of the test: A/G assays.
On to B1, for which the binding result was “no binding”.

B2: the binding result is given as “no binding”.

The target of another test is T14, PICK1 PDZ-GST fusion protein (Bos taurus (Bovine), UniProt Q2T9M1 17-105).
T14 construct: Order of GST and PDZ part and limits not seen in the excerpts
T14 sequence (Q2T9M1 other isoform, or with tags, fused parts or gaps limits assumed): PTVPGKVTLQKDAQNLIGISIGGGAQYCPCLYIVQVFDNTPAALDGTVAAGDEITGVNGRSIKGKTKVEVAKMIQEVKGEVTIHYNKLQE
The experiment in a line: A/G assays.
In the case of B3, the binding result was “no binding”.

For the molecule Biotin-TREDIYVNYPTFSRRPKTRV [DNAM-1 C-terminal peptide AA22L, biotinylated], the binding result was “no binding”.

A further test has as its target T9, K858 PDZ-GST fusion protein. The experiment in a line: A/G assays.
For the molecule B1, the binding result is given as “no binding”.

For B2, the binding result was “no binding”.

Turning to B3, the binding result is recorded as “no binding”.

For Biotin-TREDIYVNYPTFSRRPKTRV [DNAM-1 C-terminal peptide AA22L, biotinylated], the binding result is listed as “no binding”.

A further test addresses T10, GST-DLG5 (p-dlg) PDZ domain fusion …. Nature of the test: A/G assays.
For B1, the binding result is “no binding”.

Turning to B2, the binding result is given as “no binding”.

In the case of Biotin-TREDIYVNYPTFSRRPKTRV [DNAM-1 C-terminal peptide AA22L, biotinylated], the binding result was “no binding”.

The next test has as its target T11, SP short PDZ-GST fusion protein. The experiment in a line: A/G assays.
For B3, the binding result is on record as “no binding”.

Consider Biotin-TREDIYVNYPTFSRRPKTRV [DNAM-1 C-terminal peptide AA22L, biotinylated], for which the binding result is “no binding”.

The target in a further test is T15, K316 PDZ-GST fusion protein (Homo sapiens (Human), UniProt Q14CM0 72-159).
T15 construct: Order of GST and PDZ part and limits not seen in the excerpts
T15 sequence (Q14CM0 72-159 limits assumed): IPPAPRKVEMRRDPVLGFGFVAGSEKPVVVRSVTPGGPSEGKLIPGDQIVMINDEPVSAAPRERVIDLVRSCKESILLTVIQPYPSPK
Nature of the test: A/G assays.
Turning to Biotin-TREDIYVNYPTFSRRPKTRV [DNAM-1 C-terminal peptide AA22L, biotinylated], the binding result is listed as “no binding”.

For the next test, the target named is T16, GST-TIAM1 PDZ domain fusion protein (Homo sapiens (Human), UniProt Q13009 845-931).
T16 construct: also called TLAM1; T-lymphoma invasion and metastasis inducing protein 1; not shown: glutathione S-transferase encoded by vector pGEX-3X (Pharmacia)
T16 sequence (Q13009 other isoform, or with tags, fused parts or gaps): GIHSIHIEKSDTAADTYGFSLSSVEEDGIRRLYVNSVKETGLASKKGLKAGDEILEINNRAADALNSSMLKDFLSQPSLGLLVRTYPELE
The experiment in a line: A/G assays.
For the molecule B1, the binding result is “no binding”.

With B2, the binding result was “no binding”.

Regarding B3, the binding result is recorded as “no binding”.

Regarding Biotin-TREDIYVNYPTFSRRPKTRV [DNAM-1 C-terminal peptide AA22L, biotinylated], the binding result was “no binding”.

A further test deals with T12, GST-TAX-IP43 PDZ domain fusion protein. The experiment in a line: A/G assays.
Take B1: the binding result is given as “no binding”.

Turning to B2, the binding result is “no binding”.

Consider Biotin-TREDIYVNYPTFSRRPKTRV [DNAM-1 C-terminal peptide AA22L, biotinylated], for which the binding result is “no binding”.

Another test concerns the target T13, GST-DVL1 PDZ domain fusion protein. The experiment in a line: A/G assays.
Consider B1, for which the binding result is given as “no binding”.

For the molecule B2, the binding result was “no binding”.

In the case of B3, the binding result was “no binding”.

Biotin-TREDIYVNYPTFSRRPKTRV [DNAM-1 C-terminal peptide AA22L, biotinylated]: the binding result is given as “no binding”.
